Usually IC50 stands for the midpoint of a concentration-inhibition curve. A low value points to greater potency.

Assay in all cases: cell-based or functional assay
For assay [1], the target named is HIV-1 Env of isolate CMU02 (subtype AE) (HIV-1).
Assay [2] deals with HIV-1 Env of isolate MGRM-A-014 (subtype A) (HIV-1).
Assay [3] has as its target HIV-1 Env of isolate MGRM-D-016 (pseudovirus) (HIV-1).
Assay [4] addresses HIV-1 Env of isolate MGRM-D-021 (pseudovirus) (HIV-1).
Assay [5] has as its target HIV-1 Env of isolate MGRM-F1-022 (HIV-1).
Assay [6] addresses HIV-1 MGRM-D-018 envelope protein (Env) on pseudovirus (HIV-1).
Assay [7] concerns the target HIV-1 Env of isolate MGRM-AG-001 (pseudovirus) (HIV-1).
The target in assay [8] is HIV-1 Env of isolate MGRM-AG-002 (pseudovirus) (HIV-1).
Assay [9] has as its target HIV-1 Env of isolate MGRM-AG-003 (pseudovirus) (HIV-1).
The target in assay [10] is HIV-1 envelope glycoprotein (Env) of isolate 94UG103, subtype A (HIV-1).
The target of assay [11] is HIV-1 envelope glycoprotein (Env) of isolate CMU02, subtype AE (HIV-1).
Assay [12] addresses HIV-1 envelope glycoprotein (Env) of isolate MG RM-A-004, subtype A (HIV-1).
For assay [13], the target named is HIV-1 envelope glycoprotein (Env) of isolate MG RM-A-011, subtype A (HIV-1).
Assay [14] has as its target HIV-1 envelope glycoprotein (Env) of isolate MG RM-A-014, subtype A (HIV-1).
Assay [15] deals with HIV-1 JR-CSF Env E466A (HIV-1 (isolate JR-CSF)) (UniProt P20871).
For assay [16], the target named is HIV-1 JR-CSF Env I424A (HIV-1 (isolate JR-CSF)) (UniProt P20871).
Assay [17] concerns the target HIV-1 JR-CSF Env N411A (HIV-1 (isolate JR-CSF)) (UniProt P20871).
The target in assay [18] is HIV-1 JR-CSF Env T394A (HIV-1 (isolate JR-CSF)) (UniProt P20871).
Assay [19] deals with HIV-1 JR-CSF Env T413A (HIV-1 (isolate JR-CSF)) (UniProt P20871).
The target in assay [20] is HIV-1 Env of isolate 92RW020 (Clade A) (HIV-1).
In assay [21] the target is HIV-1 Env of isolate APV_6, clade B (HIV-1).
The target in assay [22] is HIV-1 Env of isolate MGRM-A-009 (clade A pseudovirus) (HIV-1).
Assay [23] deals with HIV-1 Env of isolate MGRM-D-004 (clade D pseudovirus) (HIV-1).
Assay [24] deals with HIV-1 Env of isolate MGRM-D-005 (clade D pseudovirus) (HIV-1).
Assay [25] addresses HIV-1 Env of isolate MGRM-D-028 (clade D pseudovirus) (HIV-1).
In assay [26] the target is HIV-1 Env of isolate MGRM-G-006 (subtype G) (HIV-1).
For assay [27], the target named is HIV-1 Env of isolate MGRM-G-014 (subtype G) (HIV-1).
Assay [28] deals with HIV-1 Env of isolate MGRM-G-024 (subtype G) (HIV-1).
Assay [29] concerns the target HIV-1 Env of pseudovirus MGRM-F1-012 (clade F) (HIV-1).
Assay [30] deals with HIV-1 Env of pseudovirus MGRM-F1-016 (clade F) (HIV-1).
Assay [31] deals with HIV-1 MGRM-AE-006 Env (pseudovirus) (HIV-1).
In assay [32] the target is HIV-1 envelope glycoprotein (Env) of isolate MGRM-C-007 (HIV-1).
In assay [33] the target is HIV-1 envelope glycoprotein (Env) of isolate MGRM-C-010 (HIV-1).
For assay [34], the target named is HIV-1 envelope glycoprotein (Env) of isolate MGRM-C-022 (HIV-1).

With 5329_C19 (PGT-136) (antibody), the IC50, pseudovirus neutralization in [1] and in [2] was over 50 µg/mL in each case. Further, the values for the IC50 (µg/mL), pseudovirus neutralization in [3], in [4] and in assay [5] were over 50 µg/mL, over 50 µg/mL and 2.42 µg/mL, respectively. The substance also registered an IC50 (ug/mL), pseudovirus neutralization in assay [6] of over 10 µg/mL.

On to 4877_D15 (PGT-122) (antibody), for which the IC50 (µg/mL), pseudovirus neutralization was 14.5 µg/mL in assay [7], over 50 µg/mL in assay [8] and 43.7 µg/mL in [9]. This substance came in with an IC50 (ug/mL), pseudovirus neutralization in assay [6] of 0.0115 µg/mL. Also, the IC50, pseudovirus neutralization in assay [10] was 2.04 µg/mL; in assay [11], over 50 µg/mL; in [12], over 50 µg/mL; in assay [13], over 50 µg/mL; in assay [14] it was 0.007 µg/mL.

As to 4858_P08 (PGT-123) (antibody), the IC50 (µg/mL), pseudovirus neutralization in [7] was 2.51 µg/mL; in assay [8] it was over 50 µg/mL; in assay [9] it was over 50 µg/mL. The Fold IC50 increase relative to wild-type (pseudovirus neutralization) in [15] amounted to 0.6 fold; in assay [16], 0.5 fold; in assay [17], 0.5 fold; in [18], 0.4 fold; in assay [19] it was 0.4 fold. Besides, in assay [6], the IC50 (ug/mL), pseudovirus neutralization is 0.0047 µg/mL. For the same substance, the IC50, pseudovirus neutralization is 0.678 µg/mL in assay [10]; over 50 µg/mL in [11]; over 50 µg/mL in [12]; over 50 µg/mL in assay [13]; 0.003 µg/mL in assay [14].

The substance 1496_C09 (PG9) (TCN-109) (antibody) yielded an IC90 (neutralization of pseudovirus) in [20] of 6.55 µg/mL. Further, the IC50 (µg/ml), pseudovirus neutralization in [21] was found to be 0.12 µg/mL; in [22] it was 0.03 µg/mL; in assay [31], 0.05 µg/mL; in assay [32] it was 0.09 µg/mL; in [33], 12.4 µg/mL; in assay [34], 0.19 µg/mL. The IC50 (µg/mL), pseudovirus neutralization in [7] was 17.1 µg/mL; in assay [8], 0.076 µg/mL; in [26] it was 1.98 µg/mL; in [27] it was 16.5 µg/mL; in assay [28] it was 0.163 µg/mL. In addition, the values for the IC50, pseudovirus neutralization in assay [23], in [24] and in assay [25] were 0.03 µg/mL, 0.59 µg/mL and 4.39 µg/mL, respectively. The figures for the concentration for half-maximal inhibition (IC50) in assay [29] and in [30] were 0.01 µg/mL and 0.58 µg/mL, respectively. Moreover, the IC50 (ug/mL), pseudovirus neutralization in assay [6] came out at 0.0444 µg/mL.

Regarding 5114_A19 (PGT-128) (antibody), the IC50, pseudovirus neutralization is over 50 µg/mL in assay [1] and 0.007 µg/mL in assay [2]. Also, the IC50 (µg/mL), pseudovirus neutralization in assay [3] is over 50 µg/mL; in assay [4], 0.014 µg/mL; in assay [5], 4.54 µg/mL. The Fold IC50 increase relative to wild-type (pseudovirus neutralization) in [15] worked out at 0.6 fold; in assay [16], 1.3 fold; in assay [17] it was 0.7 fold; in [18] it was 3 fold; in assay [19] it was 1 fold.

Consider 5145_B14 (PGT-127) (antibody), for which the IC50 (µg/mL), pseudovirus neutralization in assay [7], in assay [8] and in assay [9] was over 50 µg/mL throughout. Moreover, the Fold IC50 increase relative to wild-type (pseudovirus neutralization) in [15] was 0.9 fold; in assay [16], 2 fold; in assay [17], 0.8 fold; in [18], 1.6 fold; in [19], 0.8 fold. Also, the IC50, pseudovirus neutralization in assay [10] was 0.017 µg/mL; in assay [11], over 50 µg/mL; in assay [12], over 50 µg/mL; in [13], over 50 µg/mL; in assay [14], 0.04 µg/mL.

In the case of 5141_B17 (PGT-126) (antibody), the IC50 (µg/mL), pseudovirus neutralization in [7], in assay [8] and in assay [9] was over 50 µg/mL each time. Also, the Fold IC50 increase relative to wild-type (pseudovirus neutralization) amounted to 1.4 fold in assay [15]; 0.4 fold in assay [16]; 0.7 fold in [17]; 0.6 fold in [18]; 0.7 fold in assay [19]. The substance further had an IC50 (ug/mL), pseudovirus neutralization in assay [6] of 0.0093 µg/mL. The IC50, pseudovirus neutralization in assay [10] is 0.008 µg/mL; in assay [11] it was over 50 µg/mL; in [12] it was over 50 µg/mL; in assay [13], over 50 µg/mL; in assay [14], 0.01 µg/mL.

With PGV04 (antibody), the IC50 (µg/mL), pseudovirus neutralization is 0.218 µg/mL in assay [7]; 0.879 µg/mL in assay [8]; 0.058 µg/mL in [9]; 0.072 µg/mL in assay [5]; 0.083 µg/mL in assay [26]; 0.056 µg/mL in [27]. In [28], this substance displayed an IC50 (µg/mL), pseudovirus neutralization of 0.033 µg/mL.

Take 5345_I01 (PGT-137) (antibody): the IC50, pseudovirus neutralization is over 50 µg/mL in assay [1] and 18.6 µg/mL in assay [2]. In addition, the IC50 (µg/mL), pseudovirus neutralization is over 50 µg/mL in [3], over 50 µg/mL in [4] and 6.23 µg/mL in assay [5].

5123_A06 (PGT-125) (antibody): the IC50 (µg/mL), pseudovirus neutralization in [7], in assay [8] and in assay [9] was over 50 µg/mL in each case. The Fold IC50 increase relative to wild-type (pseudovirus neutralization) in [15] stood at 1.6 fold; in [16], 0.7 fold; in assay [17], 0.5 fold; in [18], 0.6 fold; in [19], 0.5 fold. Besides, the IC50 (ug/mL), pseudovirus neutralization in assay [6] stood at 0.0382 µg/mL. Besides, the IC50, pseudovirus neutralization in [10] was 0.008 µg/mL; in assay [11] it was over 50 µg/mL; in assay [12], over 50 µg/mL; in assay [13], over 50 µg/mL; in assay [14], 13.9 µg/mL.

Consider 5136_H01 (PGT-131) (antibody), for which the IC50, pseudovirus neutralization was over 50 µg/mL in [1] and 15.4 µg/mL in [2]. For the same substance, the IC50 (µg/mL), pseudovirus neutralization was over 50 µg/mL in assay [3], 0.106 µg/mL in assay [4] and over 50 µg/mL in assay [5]. Moreover, the Fold IC50 increase relative to wild-type (pseudovirus neutralization) in assay [15] turned out to be 1.7 fold; in assay [16], 4.8 fold; in [17], 0.6 fold; in assay [18], 0.9 fold; in assay [19], 0.6 fold.

Regarding 4838_L06 (PGT-121) (antibody), the IC50, pseudovirus neutralization in [10] is 2.52 µg/mL; in [11], over 50 µg/mL; in assay [12], over 50 µg/mL; in assay [13] it was over 50 µg/mL; in assay [14] it was 0.003 µg/mL.
